Experimental data as given in article doi:10.1101/2021.01.20.427433.

Biological target: 6xHis-XRCC4^1-164 (C-to-A), wildtype for the SIMs (human) (UniProt Q13426)
Assay: SPR

polySUMO2 chains (enzymatically linked via the internal K11) (from UniProt P61956 1-95)
fold increase in KD against full-length XRCC4: 3 fold
